Consider five molecules from article PMC6493668 (2019).

Assay [1] deals with T1, hepatitis A virus (HAV) full particle, genotype TZ84 (HAV IA genotype) (hepatitis A virus, genotype TZ84 (HAV …)).
T1 chain 1: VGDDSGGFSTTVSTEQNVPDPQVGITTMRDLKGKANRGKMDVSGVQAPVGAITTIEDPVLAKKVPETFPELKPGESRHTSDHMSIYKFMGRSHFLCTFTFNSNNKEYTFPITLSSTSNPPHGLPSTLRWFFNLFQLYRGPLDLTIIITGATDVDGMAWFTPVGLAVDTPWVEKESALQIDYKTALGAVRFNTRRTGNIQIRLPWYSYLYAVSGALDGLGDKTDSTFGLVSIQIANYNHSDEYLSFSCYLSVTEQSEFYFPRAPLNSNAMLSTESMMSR
T1 chain 2: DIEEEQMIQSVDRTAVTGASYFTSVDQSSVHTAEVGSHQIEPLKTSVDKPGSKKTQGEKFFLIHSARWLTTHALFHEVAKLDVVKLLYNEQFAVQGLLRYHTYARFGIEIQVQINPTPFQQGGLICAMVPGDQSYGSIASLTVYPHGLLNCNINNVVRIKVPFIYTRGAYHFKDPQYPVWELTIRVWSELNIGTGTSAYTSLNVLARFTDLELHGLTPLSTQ
T1 chain 3: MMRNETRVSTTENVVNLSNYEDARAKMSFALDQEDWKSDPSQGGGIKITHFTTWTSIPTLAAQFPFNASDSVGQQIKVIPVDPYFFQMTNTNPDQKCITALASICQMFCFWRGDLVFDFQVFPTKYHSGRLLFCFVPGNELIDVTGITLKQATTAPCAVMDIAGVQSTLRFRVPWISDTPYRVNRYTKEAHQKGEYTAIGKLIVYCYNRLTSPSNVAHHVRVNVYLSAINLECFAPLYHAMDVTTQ
As to the kind of experiment: SPR. In general terms: In SPR one partner is held on a chip, and binding of the other changes the refractive index at the surface.

For assay [2], the target named is T1, hepatitis A virus (HAV) full particle, …. As to the kind of experiment: SPR.

B1: F4 Fab (fragment of antigen binding of the neutralizing monoclonal antibody F4) (Fab, V domains shown)
VH: EVKLVESGGGLVKPGGSLKLSCAASLFTHNNYGMSWVRQTPEKRLEWVATINSTASYTYYPDSVKGRFTISRDNAKNTLYLQMSSLRSGDTAIYYCARKNDTFSDYYFDYWGQGTTLTVSS
VL: DIVLTQSPAIMSASPGERVTMTCSAHVSTDYMHWYQQKSGTSPKRWIYDTSKLASTVPDRFSGSGSGTSYSLTISSMEAEDAATYYCQQWNNNAYTYGGGTKLEIK
For orientation: Kd means the free concentration of one partner at which half of the binding sites on the other are occupied at equilibrium, for simple one-to-one binding. Low values mean higher affinity, high ones lower affinity. The term koff denotes the first-order rate constant of dissociation. Lower therefore signals slow dissociation. In the case of B1, the affinity in assay [1], expressed as Kd, was 5.14 nM. In assay [2], the koff turned out to be 0.000252 s⁻¹.

B2: F6 Fab (fragment of antigen binding of the neutralizing monoclonal antibody F6) (Fab, V domains shown)
VH: EVKLVESGGGLVKPGGSLKLSCAASMYNFQHYGMSWVRQTPEKRLEWVATIQTNATYTYYPDSVKGRFTISRDNARNILYLQMSSLRSGDTAMYYCARRDNIECHYYFDYWGQGTTLTVSS
VL: DIVLTQSPAIMSASPGERVTMTCSAHQYVSYMHWYQQKSGTSPKRWIYDTSRLADAIPQRFSGRGSGTSYSLTISSMEAEDAATYYCQQWQSNPYTFGGGTKLEIK
Turning to B2, the equilibrium dissociation constant (Kd) in assay [1] was 2.19 nM. The same molecule registered a koff in assay [2] of 0.000134 s⁻¹.

B3: R10 Fab (fragment of antigen binding of the neutralizing monoclonal antibody R10) (Fab, V domains shown)
VH: EVKLVESGGGSVKPGGSLKLSCAASGFSFSTYGMSWVRQTPEKRLEWVATISGGGGYTYYPDSVKGRFTISRDNARNILYLQMSSLRSGDTAMYYCARRVTTVAEYYFDYWGQGTTLTVSS
VL: DIVLTQSPAIMSASPGEKVTMTCSASSSVSYIHWYQQKSGTSPKRWIYDTSRLAFGVPGRFSGSGSGTSYSLTISSMEAEDAATYYCQQWSSNYTFGGGTNLEIK
For B3, in assay [1], the Kd was 8.13 nM. The molecule also yielded a koff in assay [2] of 0.000528 s⁻¹.

B4: F9 Fab (fragment of antigen binding of the neutralizing monoclonal antibody F9) (Fab, V domains shown)
VH: EVKLVESGGGLVKPGGSLKLSCAASAFTITTYGMSWVRQTPEKRLEWVATITAGGSYTYYPDSVKGRFTISRDNAKNTLYLQMSSLRSGDTAMYYCARKVTSVAEYYFDYWGQGTTLTVSS
VL: DIVLTQSPAIMSASPGEKVTMTCSATSGLSYIHWYQQKSGTSPKRWIYDTSKLAFGAPARFSGSGSGTSYSLTISSMEAEDAATYYCQQWDVNPYTFGGGTKLEIK
Molecule B4 yielded a Kd in assay [1] of 7.18 nM. In assay [2], this molecule showed an off-rate (koff) of 0.000537 s⁻¹.

B5: F7 Fab (fragment of antigen binding of the neutralizing monoclonal antibody F7) (Fab, V domains shown)
VH: EVKLVESGGGLVKPGGSLKLSCAASIHTFNCYGMSWVRQTPEKGLEWVATIDAASSYTYYPDSVKGRFTISRDNAKNTLYLQMSSLRSGDTAMYYCARRDNTTAQYYFDYWGQGTTLTVSS
VL: DIVLTQSPAIMSASPGEKVTMTCSAASSVSYIHWYQQKSGTSPKRWIYDTSRLAFGVPTRFSGSGSGTSYSLTISSMEAEDAATYYCQQWSTNPYTFGGGTKLEIK
Regarding B5, binding in assay [1] was characterised by a dissociation constant (Kd) of 7.1 nM. The molecule also displayed a koff in assay [2] of 0.000743 s⁻¹.
